Laboratory results from the Immune Epitope Database (IEDB).
pKd: −log10 of the molar value.

Columns and labels:
Assay in all cases: IEDB peptide-MHC binding, purified MHC/competitive/radioactivity; filed as Kd, often an IC50 or EC50 that approximates it; ≥ and ≤ were set here for values at or beyond the usual limits of such assays
HLA-A*02:03 = biological target: HLA-A*02:03
HLA-A*02:06 = biological target: HLA-A*02:06
HLA-A*02:02 = biological target: HLA-A*02:02
HLA-A*68:01 = biological target: HLA-A*68:01
HLA-A*03:01 = biological target: HLA-A*03:01
HLA-A*31:01 = biological target: HLA-A*31:01
HLA-A*11:01 = biological target: HLA-A*11:01
HLA-A*33:01 = biological target: HLA-A*33:01
[1] = source organism: Human immunodeficiency virus type 1 BH10
[2] = source organism: Vaccinia virus WR
[3] = source organism: Mammarenavirus guanaritoense
[4] = source organism: SARS coronavirus Tor2
[5] = source organism: Mammarenavirus juninense
[6] = source organism: Vaccinia virus Copenhagen

## SLGKAVHQV
HLA-A*02:03; source organism: Dengue virus 4 Philippines/H241/1956
  pKd: 7.84

## SLLNATDIAV
HLA-A*02:06; [1]
  pKd: 7.78
HLA-A*02:03; [1]
  pKd: 6.28

## SVDVDIYDA
HLA-A*02:06; [2]
  pKd: 6.02
HLA-A*02:02; [2]
  pKd: 5.92
HLA-A*02:03; [2]
  pKd: 4.92

## TFIDVHIPK
HLA-A*68:01; [2]
  pKd: 7.94
HLA-A*03:01; [2]
  pKd: 6.73
HLA-A*31:01; [2]
  pKd: 8.63
HLA-A*11:01; [2]
  pKd: 9.04
HLA-A*33:01; [2]
  pKd: 8.98

## TIAVSVYGA
HLA-A*02:06; [2]
  pKd: 7.01
HLA-A*02:02; [2]
  pKd: 7.60
HLA-A*02:03; [2]
  pKd: 8.00

## TIEILRNYLR
HLA-A*68:01; [2]
  pKd: 8.79
HLA-A*03:01; [2]
  pKd: 5.63
HLA-A*31:01; [2]
  pKd: 7.68
HLA-A*11:01; [2]
  pKd: 7.31
HLA-A*33:01; [2]
  pKd: 7.56

## TIKYSNDNR
HLA-A*68:01; [2]
  pKd: 8.52
HLA-A*03:01; [2]
  pKd: 4.81
HLA-A*31:01; [2]
  pKd: 7.71
HLA-A*11:01; [2]
  pKd: 6.64
HLA-A*33:01; [2]
  pKd: 6.94

## TILEYLYIMR
HLA-A*68:01; [2]
  pKd: 6.78
HLA-A*03:01; [2]
  pKd: 5.05
HLA-A*31:01; [2]
  pKd: 6.01
HLA-A*11:01; [2]
  pKd: 5.69
HLA-A*33:01; [2]
  pKd: 5.64

## TIQRFSSLR
HLA-A*68:01; [2]
  pKd: 8.31
HLA-A*03:01; [2]
  pKd: 5.28
HLA-A*31:01; [2]
  pKd: 9.26
HLA-A*11:01; [2]
  pKd: 8.05
HLA-A*33:01; [2]
  pKd: 8.26

## TISSESLVY
HLA-A*68:01; [2]
  pKd: 6.21
HLA-A*03:01; [2]
  pKd: 7.68
HLA-A*31:01; [2]
  pKd: 4.99
HLA-A*11:01; [2]
  pKd: 7.97
HLA-A*33:01; [2]
  pKd: 5.26

## TLNGIMMNER
HLA-A*68:01; [2]
  pKd: 6.13
HLA-A*03:01; [2]
  pKd: 6.65
HLA-A*31:01; [2]
  pKd: 6.97
HLA-A*11:01; [2]
  pKd: 5.88
HLA-A*33:01; [2]
  pKd: 5.84

## TLPELNLSL
HLA-A*02:06; [2]
  pKd: 6.10
HLA-A*02:02; [2]
  pKd: 6.87
HLA-A*02:03; [2]
  pKd: 7.65

## TMSIYIAVA
HLA-A*02:06; [2]
  pKd: 6.10
HLA-A*02:02; [2]
  pKd: 7.09
HLA-A*02:03; [2]
  pKd: 7.39

## TNAEFTFQL
HLA-A*02:06; [3]
  pKd: 5.44
HLA-A*02:02; [3]
  pKd: 6.39
HLA-A*02:03; [3]
  pKd: 4.82

## TQSVLCVKK
HLA-A*68:01; [2]
  pKd: 6.64
HLA-A*03:01; [2]
  pKd: 5.98
HLA-A*31:01; [2]
  pKd: 6.00
HLA-A*11:01; [2]
  pKd: 8.18
HLA-A*33:01; [2]
  pKd: ≤ 4.17

## TQVKELGIAI
HLA-A*02:06; [2]
  pKd: 8.41
HLA-A*02:02; [2]
  pKd: 5.66
HLA-A*02:03; [2]
  pKd: 6.15

## TSRTLSYYK
HLA-A*68:01; [4]
  pKd: 6.08
HLA-A*03:01; [4]
  pKd: 6.35
HLA-A*31:01; [4]
  pKd: 6.75
HLA-A*11:01; [4]
  pKd: 6.80
HLA-A*33:01; [4]
  pKd: 5.62

## TVKPGNFNK
HLA-A*68:01; [4]
  pKd: 6.91
HLA-A*03:01; [4]
  pKd: 7.09
HLA-A*31:01; [4]
  pKd: 7.38
HLA-A*11:01; [4]
  pKd: 7.48
HLA-A*33:01; [4]
  pKd: 6.00

## VCFHEFLSSK
HLA-A*68:01; [5]
  pKd: 4.84
HLA-A*03:01; [5]
  pKd: 5.46
HLA-A*31:01; [5]
  pKd: 5.82
HLA-A*11:01; [5]
  pKd: 5.35
HLA-A*33:01; [5]
  pKd: ≤ 4.15

## VFCNDHKGNR
HLA-A*68:01; [2]
  pKd: 5.39
HLA-A*03:01; [2]
  pKd: ≤ 4.27
HLA-A*31:01; [2]
  pKd: 6.37
HLA-A*11:01; [2]
  pKd: ≤ 4.16
HLA-A*33:01; [2]
  pKd: 5.73

## VLIAGIILLI
HLA-A*02:06; [6]
  pKd: 5.99
HLA-A*02:02; [6]
  pKd: 8.05
HLA-A*02:03; [6]
  pKd: 7.46

## VLPHLCLDY
HLA-A*68:01; [2]
  pKd: 4.82
HLA-A*03:01; [2]
  pKd: 6.99
HLA-A*31:01; [2]
  pKd: 5.11
HLA-A*11:01; [2]
  pKd: 6.38
HLA-A*33:01; [2]
  pKd: 5.70

## VLTSVDIETA
HLA-A*02:06; [2]
  pKd: 5.85
HLA-A*02:02; [2]
  pKd: 7.20
HLA-A*02:03; [2]
  pKd: 6.38

## VMYAFTTPLI
HLA-A*02:06; [2]
  pKd: 7.94
HLA-A*02:02; [2]
  pKd: 9.14
HLA-A*02:03; [2]
  pKd: 8.32

## VQADSGCVV
HLA-A*02:06; source organism: Dengue virus 2 Jamaica/1409/1983
  pKd: 7.10

## VQYRILPMII
HLA-A*02:06; [2]
  pKd: 6.40
HLA-A*02:02; [2]
  pKd: 5.00
HLA-A*02:03; [2]
  pKd: 6.22

## VSAKQLRTR
HLA-A*68:01; [2]
  pKd: 5.98
HLA-A*03:01; [2]
  pKd: 4.90
HLA-A*31:01; [2]
  pKd: 6.54
HLA-A*11:01; [2]
  pKd: 5.56
HLA-A*33:01; [2]
  pKd: 4.87

## VTGFMEEEIK
HLA-A*68:01; [2]
  pKd: 5.91
HLA-A*03:01; [2]
  pKd: 4.88
HLA-A*31:01; [2]
  pKd: 4.97
HLA-A*11:01; [2]
  pKd: 8.15
HLA-A*33:01; [2]
  pKd: ≤ 4.47

## VVIVENDNVI
HLA-A*02:06; [2]
  pKd: 4.97
HLA-A*02:02; [2]
  pKd: 4.83
HLA-A*02:03; [2]
  pKd: 4.99

## VVNARLRAK
HLA-A*68:01; [4]
  pKd: 5.09
HLA-A*03:01; [4]
  pKd: 7.86
HLA-A*31:01; [4]
  pKd: 6.70
HLA-A*11:01; [4]
  pKd: 6.89
HLA-A*33:01; [4]
  pKd: ≤ 4.60

## WISDNTHIYL
HLA-A*02:06; [2]
  pKd: 8.75
HLA-A*02:02; [2]
  pKd: 9.84
HLA-A*02:03; [2]
  pKd: 8.94

## WLHECTDESR
HLA-A*68:01; [2]
  pKd: 6.56
HLA-A*03:01; [2]
  pKd: ≤ 4.15
HLA-A*31:01; [2]
  pKd: 5.21
HLA-A*11:01; [2]
  pKd: ≤ 4.16
HLA-A*33:01; [2]
  pKd: 6.60

## WSRIGTAATK
HLA-A*68:01; [2]
  pKd: 6.10
HLA-A*03:01; [2]
  pKd: 7.00
HLA-A*31:01; [2]
  pKd: ≤ 4.54
HLA-A*11:01; [2]
  pKd: 5.97
HLA-A*33:01; [2]
  pKd: ≤ 4.15

## YASALVLLI
HLA-A*02:06; [4]
  pKd: 8.06
HLA-A*02:02; [4]
  pKd: 8.49
HLA-A*02:03; [4]
  pKd: 8.31

## YISRDELWAR
HLA-A*68:01; [2]
  pKd: 7.49
HLA-A*03:01; [2]
  pKd: ≤ 4.59
HLA-A*31:01; [2]
  pKd: 8.76
HLA-A*11:01; [2]
  pKd: 6.10
HLA-A*33:01; [2]
  pKd: 9.09

## YIYKSGKLVK
HLA-A*68:01; [2]
  pKd: 6.27
HLA-A*03:01; [2]
  pKd: 8.11
HLA-A*31:01; [2]
  pKd: 5.11
HLA-A*11:01; [2]
  pKd: 7.44
HLA-A*33:01; [2]
  pKd: 5.10

## YLLFNHFSV
HLA-A*02:06; [2]
  pKd: 9.14
HLA-A*02:02; [2]
  pKd: 8.91
HLA-A*02:03; [2]
  pKd: 8.80

## YMSALNHTK
HLA-A*68:01; [4]
  pKd: 8.46
HLA-A*03:01; [4]
  pKd: 6.97
HLA-A*31:01; [4]
  pKd: 6.19
HLA-A*11:01; [4]
  pKd: 7.32
HLA-A*33:01; [4]
  pKd: 5.95
